Eight molecules from paper PMC5748837, “Biochemical characterization of INTS3 and C9ORF80, two subunits of hNABP1/2 heterotrimeric complex in nucleic acid binding” can be followed below.

For orientation: Kd means the equilibrium constant for the complex coming apart.

What all share (test): EMSA; EMSA: 20 mM HEPES pH 7.3, 100 mM KCl, 1 mM MgCl2, 1 mg/ml BSA, 1 mM DTT, 6% glycerol, 0.5 nM 32P substrate, 30 min on ice; 5% native PAGE, 1x TBE, 4°C
In general terms: In EMSA bound probe runs differently from free probe, usually more slowly.

One series addresses T1, C9ORF80 (human, UniProt Q9NRY2 1-104).
T1 sequence: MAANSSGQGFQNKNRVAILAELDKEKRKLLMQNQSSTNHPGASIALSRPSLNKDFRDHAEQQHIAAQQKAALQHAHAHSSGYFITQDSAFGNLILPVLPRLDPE
As to conditions: protein: recombinant, tags: His (pET28a).

The target of a further series is INTS3FL (human, UniProt Q68E01-2 1-1042). As to conditions: protein: recombinant, tags: GST cleaved (PreScission).
Chain of INTS3FL (Q68E01 other isoform, or with tags, fused parts or gaps): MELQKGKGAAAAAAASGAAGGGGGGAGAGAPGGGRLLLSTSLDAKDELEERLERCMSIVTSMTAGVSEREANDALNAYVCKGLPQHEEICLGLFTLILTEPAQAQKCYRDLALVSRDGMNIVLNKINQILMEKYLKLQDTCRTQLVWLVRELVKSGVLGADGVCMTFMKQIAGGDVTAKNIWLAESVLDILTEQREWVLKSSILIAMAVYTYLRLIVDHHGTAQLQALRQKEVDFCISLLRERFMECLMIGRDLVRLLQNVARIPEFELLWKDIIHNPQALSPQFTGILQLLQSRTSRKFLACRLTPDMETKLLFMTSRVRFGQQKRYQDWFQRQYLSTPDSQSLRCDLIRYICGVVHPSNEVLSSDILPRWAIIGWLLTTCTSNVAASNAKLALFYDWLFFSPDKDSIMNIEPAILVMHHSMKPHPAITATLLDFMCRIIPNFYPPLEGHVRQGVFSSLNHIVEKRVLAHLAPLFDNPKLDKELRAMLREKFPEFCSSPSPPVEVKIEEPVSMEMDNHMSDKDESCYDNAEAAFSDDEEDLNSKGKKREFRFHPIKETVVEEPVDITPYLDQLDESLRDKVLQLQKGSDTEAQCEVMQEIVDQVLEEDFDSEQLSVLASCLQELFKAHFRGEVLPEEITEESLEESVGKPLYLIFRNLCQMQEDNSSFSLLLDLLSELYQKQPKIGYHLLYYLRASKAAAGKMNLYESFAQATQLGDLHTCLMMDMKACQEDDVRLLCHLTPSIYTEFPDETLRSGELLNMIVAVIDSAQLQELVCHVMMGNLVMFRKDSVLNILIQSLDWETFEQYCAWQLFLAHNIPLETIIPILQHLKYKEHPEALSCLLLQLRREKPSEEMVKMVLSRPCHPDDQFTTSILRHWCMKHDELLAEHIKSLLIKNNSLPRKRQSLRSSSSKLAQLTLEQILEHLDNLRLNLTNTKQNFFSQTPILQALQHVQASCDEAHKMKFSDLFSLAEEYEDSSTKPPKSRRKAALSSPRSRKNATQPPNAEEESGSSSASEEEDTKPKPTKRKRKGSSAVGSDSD
For the next series, the target named is hNABP1 (hSSB2) (human, UniProt Q96AH0 1-204). The note with it: protein: recombinant; tags: His; label: 5'-32P.
Chain of hNABP1 (hSSB2) (Q96AH0 whole entry): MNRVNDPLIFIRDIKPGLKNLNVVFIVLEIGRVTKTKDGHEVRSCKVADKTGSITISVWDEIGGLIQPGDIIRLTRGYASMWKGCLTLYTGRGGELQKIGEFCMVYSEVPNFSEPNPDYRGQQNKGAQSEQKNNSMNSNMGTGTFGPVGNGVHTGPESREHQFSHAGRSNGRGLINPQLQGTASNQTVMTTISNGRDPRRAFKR
Series [1] has as its target INTS3FL in co-expressed complex;hNABP1 (hSSB2);C9ORF80 (human;human;human, UniProt Q68E01-2;Q96AH0;Q9NRY2 1-1042;1-204;1-104, ||). The note with it: protein: recombinant;recombinant;recombinant; tags: GST (pGEX-6P-1); copies: 1;1;1; label: 5'-32P.
The target in a further series is INTS3C (human, UniProt Q68E01-2 514-1042). As to conditions: protein: recombinant, tags: His (pET28a), label: 5'-32P.
Chain of INTS3C (Q68E01 515-1043): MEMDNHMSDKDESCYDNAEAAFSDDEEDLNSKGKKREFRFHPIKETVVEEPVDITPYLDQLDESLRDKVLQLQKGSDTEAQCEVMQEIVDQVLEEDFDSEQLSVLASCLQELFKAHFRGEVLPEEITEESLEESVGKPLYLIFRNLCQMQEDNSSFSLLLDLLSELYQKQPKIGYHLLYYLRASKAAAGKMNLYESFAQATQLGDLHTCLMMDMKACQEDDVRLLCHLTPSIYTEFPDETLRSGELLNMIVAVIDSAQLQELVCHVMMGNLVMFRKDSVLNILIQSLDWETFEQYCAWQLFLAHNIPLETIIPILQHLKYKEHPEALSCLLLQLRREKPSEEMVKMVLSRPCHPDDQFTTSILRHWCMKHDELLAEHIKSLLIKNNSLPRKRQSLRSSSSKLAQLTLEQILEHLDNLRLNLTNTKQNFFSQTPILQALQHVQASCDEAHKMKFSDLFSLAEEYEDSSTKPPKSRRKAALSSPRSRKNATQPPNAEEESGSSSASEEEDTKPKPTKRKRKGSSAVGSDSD
Series [2] concerns the target INTS3FL in co-expressed complex;hNABP2 (hSSB1);C9ORF80 (human;human;human, UniProt Q68E01-2;Q9BQ15;Q9NRY2 1-1042;1-211;1-104, ||). As to conditions: protein: recombinant;recombinant;recombinant; tags: GST (pGEX-6P-1); copies: 1;1;1; label: 5'-32P.
The target of the next series is hNABP2 (hSSB1) (human, UniProt Q9BQ15 1-211). The note with it: protein: recombinant; tags: His; label: 5'-32P.
Chain of hNABP2 (hSSB1) (Q9BQ15 whole entry): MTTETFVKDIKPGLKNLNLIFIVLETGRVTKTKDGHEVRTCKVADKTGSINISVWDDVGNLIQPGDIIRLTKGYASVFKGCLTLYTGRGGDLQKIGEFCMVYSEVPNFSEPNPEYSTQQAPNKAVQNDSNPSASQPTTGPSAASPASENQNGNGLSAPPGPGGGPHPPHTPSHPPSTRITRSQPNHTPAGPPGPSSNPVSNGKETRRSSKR
[3] abbreviates: label: 5'-32P on one strand, blunt.

Chain of INTS3FL in co-expressed complex;hNABP2 (hSSB1);C9ORF80 (Q68E01 other isoform, or with tags, fused parts or gaps ||, chain 1 of 2): as the sequence (Q68E01 other isoform, or with tags, fused parts or gaps) above
Chain of INTS3FL in co-expressed complex;hNABP2 (hSSB1);C9ORF80 (Q9BQ15 whole entry, chain 2 of 2): as the sequence (Q9BQ15 whole entry) above
Chain of INTS3FL in co-expressed complex;hNABP1 (hSSB2);C9ORF80 (Q68E01 other isoform, or with tags, fused parts or gaps ||, chain 1 of 2): as the sequence (Q68E01 other isoform, or with tags, fused parts or gaps) above
Chain of INTS3FL in co-expressed complex;hNABP1 (hSSB2);C9ORF80 (Q96AH0 whole entry, chain 2 of 2): as the sequence (Q96AH0 whole entry) above

B1: dsRNA 30-mer (dsRNA)
RNA 1: GAGCUACCAGCUACCCCGUAUGUCAGAGAG
RNA 2: CUCUCUGACAUACGGGGUAGCUGGUAGCUC
For the molecule B1, the binding result with C9ORF80 (setting [3]) and with INTS3FL (setting [3]) was “no binding” each time.

B2: DNA:RNA hybrid 30-mer (DNA:RNA)
DNA: GAGCTACCAGCTACCCCGTATGTCAGAGAG
RNA: CUCUCUGACAUACGGGGUAGCUGGUAGCUC
Consider B2, for which the binding result with C9ORF80 (setting [3]) and with INTS3FL (setting [3]) was “no binding” in each case.

B3: dT90 (ssDNA)
DNA: TTTTTTTTTTTTTTTTTTTTTTTTTTTTTTTTTTTTTTTTTTTTTTTTTTTTTTTTTTTTTTTTTTTTTTTTTTTTTTTTTTTTTTTTTT
Take B3: the binding result with C9ORF80 (label: 5'-32P) and with INTS3FL (label: 5'-32P) was “binds” in each case.

B4: DNA 60-mer (random) (ssDNA)
DNA: ACGCAGTTGAGTATTCTACAGAGTTGGCGTGAGCTACCAGCTACCCCGTATGTCAGAGAG
Take B4: the Kd with INTS3FL (label: 5'-32P) came out at 6.4 ± 0.9 µM.

In the case of GAGCTACCAGCTACCCCGTATGTCAGAGAG (ssDNA) [DNA 30-mer (random)], the equilibrium dissociation constant (Kd) with INTS3FL (label: 5'-32P) worked out at 13 ± 0.8 µM.

B5: dT60 (ssDNA)
DNA: TTTTTTTTTTTTTTTTTTTTTTTTTTTTTTTTTTTTTTTTTTTTTTTTTTTTTTTTTTTT
Consider B5, for which, in the series with INTS3FL (label: 5'-32P), the binding result is recorded as “binds”.

As for TTTTTTTTTTTTTTTTTTTTTTTTTTTTTT (ssDNA) [dT30], the dissociation constant (Kd) in the series with C9ORF80 (label: 5'-32P) turned out to be 13.2 ± 1.2 µM; in the series with hNABP1 (hSSB2), 0.15 ± 0.04 µM; in series [1] it was 0.6 ± 0.09 µM; in the series with INTS3C it was 7.2 ± 1.2 µM.

As for UUUUUUUUUUUUUUUUUUUUUUUUUUUUUU (ssRNA) [rU30], the equilibrium dissociation constant (Kd) in series [2] came to 0.5 ± 0.07 µM; with INTS3FL (label: 5'-32P), 5.6 ± 1.2 µM; with INTS3C (chain copies: 2), 1.2 ± 0.8 µM; with hNABP2 (hSSB1), 0.06 ± 0.02 µM.
